Experimental data as given in patent publication US20010052137A1, “Axin domain-like polypeptide inhibitors of glycogen synthase kinase 3 beta activity and activators of wnt signaling” (Trustees of the University of Pennsylvania, priority 2000, published 2001).
“Also recorded” adds a separate entry of the source.

B1: GID-4: Myc-tagged fragment, Xaxin amino acid residues 350-429 (protein)
chain: KHYRREMQESANANGRGPLPHIPRTYHMPKDIHVDPEKFAAELISRLEGVLRDREAEQKLEERLKRVRAEEEGDDGDVSS
modifications: left off: small tags and cut ends
B2: deltaDIX: Xaxin having amino acid residues 778-842 deleted (protein)
chain: MSVKGKGFPLDLGGSFTEDAPRPPVPGEEGELITTDQRPFSHTYYSLKNDGIKNETSTATPRRPDLDLGYEPEGSASPTPPYLKWAESLHSLLDDQDGIHLFRTFLQQENCADLLDFWFACSGFRKLEPNDSKVEKRLKLAKAIYKKYVLDSNGIVSRQIKPATKSFIKDCVLRQQIDPAMFDQAQMEIQSMMEDNTYPVFLKSDIYLEYTTIGGESPKNYSDQSSGSGTGKGPSGYLPTLNEDEEWRCDQGGEHERERECIPSSLFSQKLALDSSSHCAGSNRRLSDGREFRPGTWREPVNPYYVNTGYAGAPVTSANDSEQQSMSSDADTMSLTDSSVDGIPPYRLRKHYRREMQESANANGRGPLPHIPRTYHMPKDIHVDPEKFAAELISRLEGVLRDREAEQKLEERLKRVRAEEEGDDGDVSSGPSVISHKLPSGPPMHHFNSRYSETGCVGMQIRDAHEENPESILDEHVQRVMKTPGCQSPGTGRHSPKSRSPDGHLSKTLPGSLGTMQTGHGKHSSKSTAKVDSGNLHHHKHVYHHVHHHGGVKPKEQIDGESTQRVQTNFPWNVESHNYATKSRNYAESMGMAPNPMDSLAYSGKVSMLSKRNAKKADLGKSESASHEMPVVPEDSERHQKILQWIMEGEKEIIRHKKSNHSSSSAKKQPPTELARPLSIERPGAVHPWVSAQLRNVVQPSHPFIQDPTMPPNPAPNPLTQLVSKPGARLEEEEKKAAKMPQKQRLKPQKKNVSAPSQPCDNIVVAYYFCGEPIPYRT
modifications: left off: small tags and cut ends
notes: Xaxin having amino acid residues 778-842 deleted
B3: GID-2: Myc-tagged fragment, Xaxin amino acid residues 320-429 (protein)
chain: DSEQQSMSSDADTMSLTDSSVDGIPPYRLRKHYRREMQESANANGRGPLPHIPRTYHMPKDIHVDPEKFAAELISRLEGVLRDREAEQKLEERLKRVRAEEEGDDGDVSS
modifications: left off: small tags and cut ends
B4: deltaGID: Xaxin having amino acid residues 324-504 deleted (protein)
chain: MSVKGKGFPLDLGGSFTEDAPRPPVPGEEGELITTDQRPFSHTYYSLKNDGIKNETSTATPRRPDLDLGYEPEGSASPTPPYLKWAESLHSLLDDQDGIHLFRTFLQQENCADLLDFWFACSGFRKLEPNDSKVEKRLKLAKAIYKKYVLDSNGIVSRQIKPATKSFIKDCVLRQQIDPAMFDQAQMEIQSMMEDNTYPVFLKSDIYLEYTTIGGESPKNYSDQSSGSGTGKGPSGYLPTLNEDEEWRCDQGGEHERERECIPSSLFSQKLALDSSSHCAGSNRRLSDGREFRPGTWREPVNPYYVNTGYAGAPVTSANDSEQQHLSKTLPGSLGTMQTGHGKHSSKSTAKVDSGNLHHHKHVYHHVHHHGGVKPKEQIDGESTQRVQTNFPWNVESHNYATKSRNYAESMGMAPNPMDSLAYSGKVSMLSKRNAKKADLGKSESASHEMPVVPEDSERHQKILQWIMEGEKEIIRHKKSNHSSSSAKKQPPTELARPLSIERPGAVHPWVSAQLRNVVQPSHPFIQDPTMPPNPAPNPLTQLVSKPGARLEEEEKKAAKMPQKQRLKPQKKNVSAPSQPCDNIVVAYYFCGEPIPYRTMVKGRVVTLGQFKELLTKKGNYRYYFKKVSDEFDCGVVFEEVREDDMILPIYEEKIIGQVEKID
modifications: left off: small tags and cut ends
notes: Xaxin having amino acid residues 324-504 deleted
B5: deltaRGS: Xaxin having amino acid residues 80-290 (RGS domain) deleted (protein)
chain: MSVKGKGFPLDLGGSFTEDAPRPPVPGEEGELITTDQRPFSHTYYSLKNDGIKNETSTATPRRPDLDLGYEPEGSASPTPREFRPGTWREPVNPYYVNTGYAGAPVTSANDSEQQSMSSDADTMSLTDSSVDGIPPYRLRKHYRREMQESANANGRGPLPHIPRTYHMPKDIHVDPEKFAAELISRLEGVLRDREAEQKLEERLKRVRAEEEGDDGDVSSGPSVISHKLPSGPPMHHFNSRYSETGCVGMQIRDAHEENPESILDEHVQRVMKTPGCQSPGTGRHSPKSRSPDGHLSKTLPGSLGTMQTGHGKHSSKSTAKVDSGNLHHHKHVYHHVHHHGGVKPKEQIDGESTQRVQTNFPWNVESHNYATKSRNYAESMGMAPNPMDSLAYSGKVSMLSKRNAKKADLGKSESASHEMPVVPEDSERHQKILQWIMEGEKEIIRHKKSNHSSSSAKKQPPTELARPLSIERPGAVHPWVSAQLRNVVQPSHPFIQDPTMPPNPAPNPLTQLVSKPGARLEEEEKKAAKMPQKQRLKPQKKNVSAPSQPCDNIVVAYYFCGEPIPYRTMVKGRVVTLGQFKELLTKKGNYRYYFKKVSDEFDCGVVFEEVREDDMILPIYEEKIIGQVEKID
modifications: left off: small tags and cut ends
notes: Xaxin having amino acid residues 80-290 (RGS domain) deleted
B6: GID-1: Myc-tagged fragment, amino acid residues 277-545 of Xenopus axin (Xaxin) (protein)
chain: SHCAGSNRRLSDGREFRPGTWREPVNPYYVNTGYAGAPVTSANDSEQQSMSSDADTMSLTDSSVDGIPPYRLRKHYRREMQESANANGRGPLPHIPRTYHMPKDIHVDPEKFAAELISRLEGVLRDREAEQKLEERLKRVRAEEEGDDGDVSSGPSVISHKLPSGPPMHHFNSRYSETGCVGMQIRDAHEENPESILDEHVQRVMKTPGCQSPGTGRHSPKSRSPDGHLSKTLPGSLGTMQTGHGKHSSKSTAKVDSGNLHHHKHVYHH
modifications: left off: small tags and cut ends

Experiments:
[1] = system: GSK-3 beta; assay: In ovo tau phosphorylation assay: GSK-3 beta and Xaxin constructs co-expressed in Xenopus oocytes; type: cell-based; conditions: construct co-expressed with GSK-3 beta in Xenopus oocytes; tau microinjected; PHF-1 immunoblot
Description: Stage VI Xenopus oocytes were isolated by collagenase treatment (Smith et al., 1994, Meth. Cell Biol. 36:45-58) and were injected with mRNA prepared by in vitro transcription (mMessage Machine™; Ambion, Austin, Tex.). 10 nanoliters of mRNA (containing 1-2 nanograms per nanoliter) was injected for each construct (unless otherwise specified), and the injected oocytes were incubated for 16 hours at 18° C. To analyze the effects of Xaxin constructs on dorsal-ventral pattern formation, Xenopus embryos were injected with 10 nanoliters of mRNA (0.1-0.2 nanogram per nanoliter) into one dorsal or ventral cell of a 4 cell embryo and dorsal axes were assessed at the tadpole stage. For Xaxin co-immunoprecipitation, fertilized eggs were injected with 10 nanoliters of Xaxin tagged with Myc, with hemagglutinin, or with both Myc and hemagglutinin (1 nanogram per nanoliter) and harvested at the blastula stage (stage 8).
In ovo phosphorylation of tau by GSK-3 beta was performed by microinjection of tau protein into oocytes expressing GSK-3 beta and Xaxin constructs. After 90 minutes, oocytes were homogenized and tau phosphorylation was analyzed in western blots using phospho-specific antibodies as described (Hedgepeth et al., 1997, Develop. Biol. 185:82-91). In vitro assays for GSK-3 beta activity were performed as described (Klein et al., 1996, Proc. Natl. Acad. Sci. USA 93:8455-8459). Recombinant GID-2/his protein (described below) was purified by affinity chromatography and added to in vitro assays at selected concentrations.
In the experiments presented in this example, a tau phosphorylation assay (described in Hedgepeth et al., 1997, Develop. Biol. 185:82-91) was used to examine the activity of GSK-3 beta in Xenopus oocytes in the presence of full length axin and axin deletion mutants. […] Furthermore, GSK-3 beta-dependent tau phosphorylation occurs in oocytes at the same sites (tau serine residues 396 and 404) that are phosphorylated by GSK-3 beta in vitro and occurs with similarly rapid kinetics.
GSK-3 beta was expressed in oocytes together with Myc-tagged full length Xaxin or with the amino-terminal (amino acid residues 63-288), GID-1 (amino acid residues 277-545), or carboxyl-terminal (amino acid residues 429-713) fragments of Xaxin, as depicted in FIG. 1A. Purified tau protein was then microinjected into the oocytes, and phosphorylation of tau was measured by immunoblotting using antibody PHF-1 or with antibodies that detect all (i.e. phosphorylated and non-phosphorylated) forms of tau.
In order to identify the domain of axin necessary for GSK-3 beta binding, multiple Myc-tagged GID deletion constructs (shown diagrammatically in FIG. 3A) were individually expressed in Xenopus oocytes in which GSK-3 beta was also expressed. Tau protein was microinjected into the oocytes, and immunoblotting was performed using phosphorylation-state-specific tau antibodies. A parallel group of oocytes expressing GSK-3 beta and the Myc-tagged GID deletion constructs were lysed, and GID proteins were immunoprecipitated using a Myc-specific antibody. The presence or absence of GSK-3 beta in GID immunoprecipitates was detected using GSK-3 beta-specific antibodies. GID deletion constructs which included amino acid residues 380-404 of Xaxin (i.e. constructs GID-1, GID-2, GID-4, GID-5, and GID-6) bound GSK-3 beta and inhibited GSK-3 beta mediated tau phosphorylation, as indicated in FIG. 3A. […] However, changing leucine residue 392 in FIG. 3B to proline abolishes its activity.

[2] = system: GSK-3 beta; assay: Co-immunoprecipitation of GSK-3 beta with Myc-tagged Xaxin constructs in Xenopus oocytes; type: binding; conditions: Myc-tagged construct co-expressed with GSK-3 beta in Xenopus oocytes; anti-Myc IP, anti-GSK-3 beta blot
[3] = system: Xenopus embryos; assay: Dorsal axis duplication / dorsalization in Xenopus embryos after mRNA injection; type: in vivo; conditions: for effect on axial development / axis formation: construct expressed in embryos, injection side not stated

| Molecule | GSK-3 beta-mediated tau phosphorylation (GSK-3 beta activity) [1] | binding with GSK-3 beta (co-immunoprecipitation) [2] | effect on axial development / axis formation [3] | embryos that exhibited dorsalization ([3]; construct(s) expressed in Xenopus embryos) |
| --- | --- | --- | --- | --- |
| B1 | inhibited | bound |  |  |
| B2 | partially inhibited | bound |  |  |
| B3 | inhibited | bound |  |  |
| B4 | no discernible effect | did not bind | infrequent ectopic posterior axis formation |  |
| B5 | inhibited | bound | complete axis duplication | 86% |
| B6 | virtually complete inhibition; also recorded: inhibited | bound | complete axis duplication |  |
